Source: US20240010683A1, “Peptide Inhibitors of Human Mitochondrial Fission Protein 1 and Methods of Use” (The Medical College of Wisconsin, Inc., priority 2020, published 2024)
Several values for one entry are separate records, joined by “and”; a condition that tells them apart may be missing. Identical values can stand only once.

Biological target: T1, recombinant human mitochondrial fission protein 1 (Fis1) (human), Q9Y3D6
T1 chain: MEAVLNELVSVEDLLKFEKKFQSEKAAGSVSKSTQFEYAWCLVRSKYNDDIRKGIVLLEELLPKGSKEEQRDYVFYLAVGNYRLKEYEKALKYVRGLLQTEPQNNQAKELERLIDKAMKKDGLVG

With SHKHDPLPYPHFLL (modifications not checked) [pep213] as the binder, how does the Kd read?
Its Kd is 7 µM and 3.3 µM.
